This is an account of results in the DeepSol protein solubility set.

The data set is described as follows: soluble on expression in E. coli; label from the status in PepcDB or PDB records.
Consider “SLLDVAVSPDDRFILTADRDEKIRVSWAAAPHSIESFCLGHTEFVSRISVVPTQPGLLLSSSGDGTLRLWEYRSGRQLHCCHLASLQELVDPQAPQKFAASRIAFWCQENCVALLCDGTSVVYIFQLDARRQQLVYRQQLAFQHQVWDVAFEETQGLWVLQDCQEAPLVLYRPVGDQWQSVPESTVLKKVSGVLRGNWAMLEGSAGADASFSSLYKATFDNVTSYLKKKEERLQQQLEKKQRRRSPPPGPDGHAKKMRPGEATLSC”, for which the “soluble on expression in E. coli” value is reported as “soluble”. For “MGSDKIHHHHHHMKKVRAAIVGYGNIGHYVLEALQAAPDFEIAGVVRRAGAENKPEELANYAVVKDIKELEGVEVAILCTPTRSVEKYAKEYLAMGINTVDSFDIHTGIVDLRRTLDATAKEHKAVSIISAGWDPGSDSIVRTMLEAIAPKGITYTNFGPGMSMGHTVAVKAIDGVKAALSMTIPTGTGIHRRMVYIELKDGYKFEEVAAAIKADPYFVNDETHVKLVPSVDALLDMGHGVNLTRKGVSGKTQNQLFEFNMRINNPALTAQVLVCVARASMKQQPGCYTMVEVPVIDLLPGDREEWIGHLV” the value was “not soluble”; for “MADLLDKIMGSSSSNRIPKRDNRMNQDKDEPTSKRSAPMFSTPKSTTPIGRDSFATMDTMNVQMNMFPVDIKDMPHKIQRFQVDVIVCSSNGKQINANLGVLAAKGDVNSHNRRLAQYYIMRTVHDKLLVKFSGKSHHFLAYDCAATLYLPEGVYTGDDQEEVTLTIDDFPKEEWKFVSKLSRRKDDSYLVVLKPAGFVYTQGEVAQEEANRMELTRIIEIVTSQKLNNEDYLQFGNATFPRLSPPHSEPDAISEIRSGFAKVSRLSQNGGGKAFMTVDTKISPFYKDTSVIKFSSNKLSEMKGGGGGRGGYGRSDSRDSRGGYRGGRSDSRDFRGVYGNRGGNDRYRDESRGRRDMYDSRRDSGSSNGADYSPSDAAELEHAFGERGNTKRCIEEALKGLDVECTHLKGNLIRVSSIAENNAENTSFMMKDDKGEREVTVAEYFLLQYNIKLKYPRLPLVVSKRFKHESFFPMELLRIAPGQRIKVNKMSPTVQSAMTGRNASMPQHHVKLVQDILRDNLKLEQNKYMDAFGIKLMSTEPIQMTAKLLPPAQIKFKGQTYMPDMSRPAFRTQDKFVEPARIRKIGIVVFDNCIQMRQAEDFCDKLSNFCRDNGITVEKDSRDWSIRELNSSDSVAIQNLMKKWLDDRVDILVGIAREKKPDVHDILKYFEESIGLQTIQLCQQTVDKMMGGQGGRQTIDNVMRKFNLKCGGTNFFVEIPNAVRGKAVCSNNETLRKKLLEHVQFIGFEISHGASRTLFDRSRSQMDGEPSVVGVSYSLTNSTQLGGFTYLQTQKEYKLQKLDEFFPKCVRSYKEHSKTLPTRIVIYRVGAGEGNFNRVKEEVEEMRRTFDKIQPGYRPHLVVIIAQRASHARVFPSCISGNRATDQNIPSGTCVENVLTSYGYDEFILSSQTPLIGTVRPCKYTILVNDAKWSKNELMHLTYFRAFGHQVSYQPPSVPDVLYAAENLAKRGRNNYKIHQRYVNLQAVENRIIKDHSELINEDMREELAAAIVDEMSVAMNGMTIPKRNFWA”, “not soluble”.

For “MTMSTILFDDIRPYCDQEAPAVIERLLSSAEYRYVFGKMMPDVKPQEFEQMMLRCKSTGEFKHIFGYTAVKAVSEKTTFSLSLSGRSRIPDNGAYIFISNHRDIVLDSAFLNLLLAEIDYNMPQIAIGDNLLVKPWIEDFVRLNGSFIVRRGINMRELIAQSQRLSAYIRHTITQTKDSIWIAQREGRAKDADDRTQSSVLKMLAMSGEDGGIKSLLNLNIVPLSLSYEYDPCDYLKAREMLSKQRDPLYKKPVGEDLLNMQTGIFGYKGRVHFAIGTPLRELAESIPADAPHARQFTEAGKLIDAEIHRRYRLYPGNYVAWDLLDGCDHAGSHYSKEEKETFVNYLSAQIAKVEMQDKDEEELKRLILIMYANPARAYYAAQDPTNV”, the “soluble on expression in E. coli” value is reported as “not soluble”. “MGSDKIHHHHHHMRVGVIGVGCSRFGRRDDAVIQELAYEAVKEALDDAGITQDEVELSVVGSVNTRGYELMPAVPVNEYCGFAGKGPLRVEAACATGAAAVYTAYTSIASGMADVAIAIGVEKMTEVDTATSLAIGGRAGNYLWEFHQYGTTFPAYYAMHATAHMAKYGTTEEQMAKVAVKAHRNAARNPKAHFQKEIAVEDVLNSRYITYPLKLYDCSPISDGSAAAILASEEKIRELGIDDVVWIDSVGYASDTSNMTNRESFVGLKATVLAREMAYRKAGIEEPVKQLDFATVHDCFTIAEIMAYEDLGFCRKGEGGKLVESGETELGGKLPVNTFGGLKAKGHPLAATGVAMVYEIVKQLRGEAGELQVELRNNRALLHNVGGTGHFAFVMIFGR”: the “soluble on expression in E. coli” value was “not soluble”. For “MNAEIASEIVAEIPLWSQELPDTQEIIASLISSNLFPLIYTEQDYLEIANASAGLYISDIIHCLTDIRKNHDLGNSSEIAKLLLAKKIQLLNRLYDIEFLPPPKVQLGGLELMQQSFKKFKRLLTPRAKQYNLRVPKGIMLEHHHHHH” the value was “not soluble”; for “DNPINIAVPGVAQQNVSATINNGTLTRRGNLWIARPTKVGSEAIISVTAQSGGRTIQMAKTTLRVRALPDPLPYIEYKDVQGNTKRFKGGRLGKREILAAGGIKAALDDDLLEVNYTVVKFQLVFYDSMGNSIPEVSDGASFSERQKRQIQNLGKGKRFYVTEVIARGPDGIERKIPAIEVIVN”, “not soluble”; for “MSLRVTDFSFELPESLIAHYPMPERSSCRLLSLDGPTGALTHGTFTDLLDKLNPGDLLVFNNTRVIPARLFGRKASGGKIEVLVERMLDDKRILAHIRASKAPKPGAELLLGDDESINATMTARHGALFEVEFNDERSVLDILNSIGHMPLPPYIDRPDEDADRELYQTVYSEKPGAVAAPTAGLHFDEPLLEKLRAKGVEMAFVTLHVGAGTFQPVRVDTIEDHIMHSEYAEVPQDVVDAVLAAKARGNRVIAVGTTSVRSLESAAQAAKNDLIEPFFDDTQIFIYPGFQYKVVDALVTNFHLPESTLIMLVSAFAGYQHTMNAYKAAVEEKYRFFSYGDAMFITYNPQAINERVGEEGGSHHHHHH”, “soluble”. The value for “MGSDKIHHHHHHMTTTDTRPSPSPLQQDYQRFLLLGSRRAPYTLHVHETGYRSGTINTDALGLRYSHCAGKRFSAAEHGGASRINLLVGGSTALGIGASSDEHTVASHLSMLTGEVWLSLAGCGLNATQELMMFLTHQHRLGQLGHVVVLSGLNSLAHEALCEVLAGTNDPQHAKAYQAFLNSFSEGMQPCAPPRRQSLWRRIGQALTPPVAAPPVSWPLSPPEKRLARAADNIGRTLRQWDRLLADSHATLTFILQPLLPWCRDTLPAGEQAMLTALQQQPANFDRLLEGAFDRQLHSAFFRRIKSQADPVPCYDMNCMLDSSPVFGADLFIDRLHLNDLGNNALAKVITAKLGLAQEKHAQRKVTPIKLV” was “not soluble”.

With “TQETFPPKYLHYDEETSHQLLCDKCPPGTYLKQHCTAKWKTVCAPCPDHYYTDSWHTSDECLYCSPVCKELQYVKQECNRTHNRVCECKEGRYLEIEFCLKHRSCPPGFGVVQAGTPERNTVCKRCPDGFFSNETSSKAPCRKHTNCSVFGLLLTQKGNATHDNICSGNSESTQKCGIDVTLCEEAFFRFAVPTKFTPNWLSVLVDNLPGTKVNAESVERIKRQHSSQEQTFQLLKLWKHQNKDQDIVKKIIQDIDLCENSVQRHIGHANLTFEQLRSLMESLPGKKVGAEDIEKTIKACKPSDQILKLLSLWRIKNGDQDTLKGLMHALKHSKTYHFPKTVTQSLKKTIRFLHSFTMYKLYQKLFLEMIGNQVQSVKISCL”, the “soluble on expression in E. coli” value is listed as “not soluble”. The value for “SLSSTQSVNSVLAPGNLRKVHHIALNVQDMQASRYFYGTILGLHELTDDEVPATLTELVASGKVANFITPDGTILDLFGEPELSPPDPNPEKTFTRAYHLAFDIDPQLFDRAVTVIGENKIAIAHGPVTRPTGRGVYFYDPDGFMIEIRCDPEAEG” was “soluble”; that for “MGSDKIHHHHHHMEFSQLRIFQAVAEEGSVTRAAERLHRVPSNLSTRLRQLEEQLGVELFLRERQRLQLSPAGKVLLDYANRMSALRDEALGAVRGGQPAGDFVLGTMYSTAATHLPALLARYHQSYPQVNLQVRAAPSGELLEGLLNHTLDAALVDGPPSLAGLDGVPLCDEQLVLITSPEHPAVLTAKDVAGKAVFTFRQGCSYRMRLEAWYAHAHTPMGRVMEIESYQSMLACVIAGAGVAMMAQSMLDSLPGRDRVRVHSLQAPFDQAVTWLMWRQGMRGANLQAWIDLQQSETINQSSECAATA” was “not soluble”; that for “MQTEVKETPRYAIVASVQLPEVSDAEFEASLTELSELAKTLGFQVVQTFVQKRSSFDRTAYMGVGKLDEISMYVKRGIRADELEDEPQELDASSVAIDALLVDHEISPSQARNLELAVGCEVMDRTMVILEIFHRNARSRAARAQVEIARLGYMAPRLREAAKLAGPQGRQRSGMGGRGAGESHTELDRRKVRDRIAELQREIVAMELERKTQRARRLERQGLGLGGVSLVGYTNAGKSTLMRALTGSEVLVANKLFATLDTTVRVLHPESVPRVLVSDTVGFIKNLPHGLVASFKSTLEEALDASLLLHAIDASDPGFQRQLEVTDEVLREIGADDVPRIRVFNKIDHVGDEAEQAAWTAELRQRYPGCVVMSALRPEDVASLRAAIVAFFQQDLVEDELLLPWSAQQLRGEIYSHCQVLEERAEEEGCWFRVRGEPEKLRSLREQLNPGSQGREKEYWEALEHHHHHH” was “not soluble”. The value for “RKDMEMNINFNMSYQKNKLLSLSGEYNGMHMTASDITPIGSLYGAGQNGGDNNVVYQIVGQPLGVFYLPHCKGLKENELGGYSYDIEDLNDDGEIDFSDGGDRYIAGQATPKVTIGSNISFRYKSFDIAMQINGAFGHKIFNGTGLAYTNMSIFPDYNVLKGAPEKNIIDQNVSDYWLEKGDYVNIEHITIGYNIPMKSKAVKSLRLSAGISNLATITGYSGLTPMINSYVVSNTLGIDDKRTYPLYRTYSLGLSIQF” was “not soluble”; that for “MENKKNDNQQPTVASAHHPFYLGEMKKGMFACWTVTTQCCDDTKVTILDDTGKVYATYTKAFTQSHNLTLLGQGNAIIEGNELRVYVDSSMSSQLIASTNTHLINDLNARKVGAVTDICIEDQTDNDFNDVYINVVAWNKKG” was “not soluble”; that for “MAHHHHHHMPKIRPGMKRPPPGFEKINDKLDEYDAEMRLALSEDPSQAELPVPSKRKDKQNKVEATKDKHAQSVQRGDGGVAGHSDGELDKPEPPLWRVARINRERTRYVFNACFRERIIAEEVLDYCCEMNFIDAGLVRRWSLAGYERLCCNTCCLPGAASEAARMVNKFANRDKKDRRTNGNDDTGGTCICRVPDEKRLAKAFTRCMVCGCSGCGSGGKRKHDTEEKDSVSDMKKVRTDDYEVKSGK” was “not soluble”.

In the case of “GFNYSITGNIATFKNKITELPDNVRSVYGGNGMLDDIIGRPRNSIYGYVADGIFKTQEEVDNSPQQAGKGLGRIRYKDLDGDGRITQDYDRTWIGVSDPDFTYGLNLQASYKNVDLALFFQGVHGGDVWDSWIEYSDFWNIQDVNNTNHLKGVFNAWSPQNPDSNIPALSTRNTNDEKRTSTYFLKDGSYLKLRTIELGYTFPESMVKKAMISRLRAYVSANNVFTIKKWWDSNRFSGPDPEIRDFGYVIPFTATVGVNITF”, the “soluble on expression in E. coli” value is “not soluble”. The value for “MGSDKIHHHHHHMLSNLWKRQAPQMVGIDIGSHEVKAILLGKTADGYKILSHAAVPVKKGAINDHDIRDADAVVECLRQIKRILPKSVKYAAVAVSGSAVMTKVIYMDASLSEEEMEAQIEIEADNLIPYSLDEVSIDFETLNVNSTDPSKVDVLLSACRTDNIDTRVDALDEVELETKVVDVEGYALGRAVELVLGQLPEGARQKAVAMVDIGANMTTFCVVESGETTFIREQAFGGELFTQSILSFYGMSYEQAEKAKIEGDLPRNYMFEVLSPFQTQLLQQIKRTLQIYCTSSGKDKVDYLVLCGGTSKLEGMANLLTNELGVHTIIADPFQGCLHADESVKNILQPSISKYMVACGLALRSYGQWRT” was “not soluble”.
